Residue numbers refer to the chain shown, from its start. Names may count otherwise. “Also recorded” adds a separate entry of the source. Blank lines part the entries; values can stand above or below the molecule they belong to.
Columns and labels:
[1] = target: intact Tlr4 protein, endogenous in RAW 264.7 macrophages (mouse) (UniProt Q9QUK6); test: cell-based or functional assay
[2] = target: flag-tagged Tlr4 ectodomain construct, residues 22-660 (no cytoplasmic domain) (mouse) (UniProt Q9QUK6); test: equilibrium specific binding of M2 at a fixed concentration to RAW 264.7 clones, mean of 9 clones
[3] = target: flag-tagged Tlr4^Lps-n cytoplasmic domain construct, residues 630-835 (mouse) (UniProt Q9QUK6); test: equilibrium specific binding of M2 at a fixed concentration to RAW 264.7 clones, mean of 7 clones
[4] = target: flag-tagged Tlr4^Lps-d, residues 22-835 (P712H), expressed in RAW 264.7 cells (mouse) (UniProt Q9QUK6); test: equilibrium specific binding of M2 at a fixed concentration to RAW 264.7 clones, mean of 10 clones
[5] = target: flag-tagged Tlr4^Lps-n, residues 22-835, expressed in RAW 264.7 cells (mouse) (UniProt Q9QUK6); test: as above
[6] = target: flag-tagged Tlr4^Lps-d, residues 22-835 (P712H), expressed in RAW 264.7 cells (mouse) (UniProt Q9QUK6); test: saturation isotherm of 125I-M2 (50 ng/ml to 20 ug/ml) on transfected RAW 264.7 cells
[7] = target: flag-tagged Tlr4^Lps-d cytoplasmic domain construct, residues 630-835 (P712H) (mouse) (UniProt Q9QUK6); test: equilibrium specific binding of M2 at a fixed concentration to RAW 264.7 clones, mean of 8 clones
[8] = target: flag-tagged Tlr4^Lps-d, residues 22-835 (P712H), expressed in RAW 264.7 cells (mouse) (UniProt Q9QUK6); test: saturation isotherm of 125I-M2 on transfected RAW 264.7 cells, nonlinear regression
RAW 264.7 cells = test: LPS-induced TNF production (EC50 shift) in RAW 264.7 clones expressing Tlr4 constructs, L-929 cytotoxicity assay; assay type: cell-based, murine; settings: for leftward shift of the LPS EC50 curve (augmentation of the LPS response): over-expression in RAW 264.7, TNF production; for rightward EC50 shift (inhibition of LPS signaling): membrane-associated cytoplasmic domain constructs lacking the entire ectodomain; for effect on LPS signaling (in words): over-expression of truncated constructs in RAW 264.7 cells
Description: FIG. 15C. Composite analysis of the shift in EC50 caused by expression of Tlr4^Lps-n and Tlr4^Lps-d in RAW 264.7 cells. Each point represents an EC50 determination performed on ten independent clones at the stated LPS concentration. For each clone, four replicate assays were performed at each concentration. […] Transfected macrophages were plated in 24 well plates at a density of 5×10^5 cells per well, and covered with 1.0 ml of DMEM supplemented with 10% FBS. LPS was added to each well at the concentration indicated. After 15 hours of incubation the medium was harvested, and TNF concentration was assayed in the standard L-929 cytotoxicity system^36, using cycloheximide at a concentration of 100·g/ml to potentiate killing. After 15 hours of exposure to diluted macrophage medium or to mouse TNF applied at a range of 8 standard concentrations, the number of viable cells was determined by staining with crystal violet. A standard curve relating % cytotoxicity to TNF concentration (not shown) was generated using Prism 3.0, and was based on an assumption of sigmoidicity. Variance among replicate samples was typically beneath 5% of the mean, and departures of individual samples from the sigmoid plot were typically smaller still. Linear estimates of TNF concentration in unknown samples were based on non-linear interpolation from the standard curve (also performed using Prism 3.0). The curves shown were generated assuming sigmoidicity of response with variable slope for each curve, and further assigning a maximum response value of 1760 pg TNF, which yielded an optimal fit for the most responsive curve. Error bars indicate standard deviation among clones at each LPS concentration. Log EC50 values and standard error values are shown in the inset table.
FIG. 15D. Shifts of the log EC50, determined for individual clones. A more conservative approach, in which log EC50 values were determined for individual clones transfected with vector alone, or with the Tlr4^Lps-n or Tlr4^Lps-d constructs. The log EC50 data were then represented as a scatter plot, in which each point represents the log EC50 determination of a single clone (confidence limits not shown for the sake of simplicity), and is derived from 24 separate TNF assays performed on samples stimulated over a 10^4-fold range of LPS concentration (100 pg/ml to 1·g/ml, as well as an unstimulated control). In most instances, two determinations of log EC50 were made independently for each clone. The mean and standard error of each cluster is shown in the inset, together with p values defining the likelihood that the EC50 displacements are attributable to chance. Data were analyzed by means of a one-tailed t test, using Welch's correction for unequal variance.
In order to directly examine the role of Tlr4 as a transducer of the LPS signal in macrophages, the inventors expressed the normal mouse protein—and various mutant forms—in RAW 264.7 macrophages have been expressed (FIG. 14; Table VIII). These cells of murine origin are highly responsive to LPS, and are known to express the Tlr4 mRNA (Poltorak et al, 1998b). Unlike cell lines of non-myeloid origin (i.e., 293 cells or CHO cells), they express all proteins required for the elicitation of a biologically relevant response to LPS (e.g., TNF production). As such, they may be used to determine whether Tlr4 is a limiting factor in the initiation of an LPS signal, and to examine the mechanism by which the Tlr4^Lps-d allele exerts its dominant inhibitory effect on signaling. This was determined by performing more than 3,000 assays of TNF production, induced over an extensive range of LPS concentrations in numerous stable clones, since individual clones show considerable background variability in LPS responses. Moreover, because culture conditions can affect the sensitivity of the TNF assay and production of TNF by LPS-stimulated cells, all transfected and control clones were induced and assayed in parallel. […]

shift of the LPS EC50 for TNF production in RAW 264.7 clones [1]: 39 fold
Molecule: flag-tagged Tlr4^Lps-d cytoplasmic domain construct, residues 630-835 (P712H) (from UniProt Q9QUK6 630-835) (receptor)

shift of the LPS EC50 for TNF production in RAW 264.7 clones [1]: 4 fold
Molecule: flag-tagged Tlr4^Lps-n cytoplasmic domain construct, residues 630-835 (from UniProt Q9QUK6 630-835) (receptor)

Copies/cell [2]: 14000 copies/cell
Copies/cell [3]: 12000 copies/cell
Copies/cell [4]: 20000 copies/cell
Copies/cell [5]: 21000 copies/cell
% saturation of the surface receptor at the highest antibody concentration [6]: 56.4%
Copies/cell [7]: 9900 copies/cell
binding sites per cell (binding sites per cell) [8]: 28100
Molecule: monoclonal antibody M2 (obtained from Sigma)

B1: Tlr4^Lps-n: flag-tagged full-length normal mouse Tlr4, residues 22–835, expressed in RAW 264.7 cells (protein)
chain: PGSLNPCIEVVPNITYQCMDQKLSKVPDDIPSSTKNIDLSFNPLKILKSYSFSNFSELQWLDLSRCEIETIEDKAWHGLHHLSNLILTGNPIQSFSPGSFSGLTSLENLVAVETKLASLESFPIGQLITLKKLNVAHNFIHSCKLPAYFSNLTNLVHVDLSYNYIQTITVNDLQFLRENPQVNLSLDMSLNPIDFIQDQAFQGIKLHELTLRGNFNSSNIMKTCLQNLAGLHVHRLILGEFKDERNLEIFEPSIMEGLCDVTIDEFRLTYTNDFSDDIVKFHCLANVSAMSLAGVSIKYLEDVPKHFKWQSLSIIRCQLKQFPTLDLPFLKSLTLTMNKGSISFKKVALPSLSYLDLSRNALSFSGCCSYSDLGTNSLRHLDLSFNGAIIMSANFMGLEELQHLDFQHSTLKRVTEFSAFLSLEKLLYLDISYTNTKIDFDGIFLGLTSLNTLKMAGNSFKDNTLSNVFANTTNLTFLDLSKCQLEQISWGVFDTLHRLQLLNMSHNNLLFLDSSHYNQLYSLSTLDCSFNRIETSKGILQHFPKSLAFFNLTNNSVACICEHQKFLQWVKEQKQFLVNVEQMTCATPVEMNTSLVLDFNNSTCYMYKTIISVSVVSVIVVSTVAFLIYHFYFHLILIAGCKKYSRGESIYDAFVIYSSQNEDWVRNELVKNLEEGVPRFHLCLHYRDFIPGVAIAANIIQEGFHKSRKVIVVVSRHFIQSRWCIFEYEIAQTWQFLSSRSGIIFIVLEKVEKSLLRQQVELYRLLSRNTYLEWEDNPLGRHIFWRRLKNALLDGKASNPEQTAEEEQETATWT
modifications: left off: small tags and cut ends
notes: flag-tagged full-length normal mouse Tlr4, residues 22–835, expressed in RAW 264.7 cells
leftward shift of the LPS EC50 curve (augmentation of the LPS response) (RAW 264.7 cells; composite EC50 analysis): 30 fold
leftward shift of the LPS EC50 curve (augmentation of the LPS response) (RAW 264.7 cells; composite EC50 analysis, listed as Tlr4): about 30 fold

B2: Tlr4^Lps-d: flag-tagged full-length mouse Tlr4 with P712H mutation, residues 22–835, expressed in RAW 264.7 cells (protein)
chain: B1 chain with P691H
modifications: left off: small tags and cut ends
notes: flag-tagged full-length mouse Tlr4 with P712H mutation, residues 22–835, expressed in RAW 264.7 cells
composite range of responsiveness (mean EC50 of Tlr4^Lps-d transfected clones/mean EC50 of Tlr4^Lps-n transfected clones) (RAW 264.7 cells; LPS EC50 measured for each individual clone): 1120 fold
difference in the mean response at the EC50 point, Tlr4^Lps-n vs Tlr4^Lps-d over-expression (RAW 264.7 cells; composite EC50 analysis): 74,000 fold
shift to the right of the LPS EC50 curve (suppression of the LPS response) (RAW 264.7 cells; composite EC50 analysis, full-length protein in RAW 264.7, TNF production): 2600 fold

B3: Tlr4^Lps-d Cyt. Dom.: membrane-associated Tlr4 cytoplasmic domain with P712H, residues 630–835, with flag peptide, lacking the ectodomain (protein)
chain: TIISVSVVSVIVVSTVAFLIYHFYFHLILIAGCKKYSRGESIYDAFVIYSSQNEDWVRNELVKNLEEGVPRFHLCLHYRDFIHGVAIAANIIQEGFHKSRKVIVVVSRHFIQSRWCIFEYEIAQTWQFLSSRSGIIFIVLEKVEKSLLRQQVELYRLLSRNTYLEWEDNPLGRHIFWRRLKNALLDGKASNPEQTAEEEQETATWT
modifications: left off: small tags and cut ends
notes: membrane-associated Tlr4 cytoplasmic domain with P712H, residues 630–835, with flag peptide, lacking the ectodomain
rightward EC50 shift (inhibition of LPS signaling) (RAW 264.7 cells): 39 fold

B4: Tlr4^Lps-n Cyt. Dom.: membrane-associated Tlr4 cytoplasmic domain, normal sequence, residues 630–835, with flag peptide, lacking the ectodomain (protein)
chain: B3 chain with H83P
modifications: left off: small tags and cut ends
rightward EC50 shift (inhibition of LPS signaling) (RAW 264.7 cells): 4 fold

B5: Ectodomain: membrane-anchored truncated Tlr4, residues 22–660, lacking the entire cytoplasmic domain (protein)
chain: PGSLNPCIEVVPNITYQCMDQKLSKVPDDIPSSTKNIDLSFNPLKILKSYSFSNFSELQWLDLSRCEIETIEDKAWHGLHHLSNLILTGNPIQSFSPGSFSGLTSLENLVAVETKLASLESFPIGQLITLKKLNVAHNFIHSCKLPAYFSNLTNLVHVDLSYNYIQTITVNDLQFLRENPQVNLSLDMSLNPIDFIQDQAFQGIKLHELTLRGNFNSSNIMKTCLQNLAGLHVHRLILGEFKDERNLEIFEPSIMEGLCDVTIDEFRLTYTNDFSDDIVKFHCLANVSAMSLAGVSIKYLEDVPKHFKWQSLSIIRCQLKQFPTLDLPFLKSLTLTMNKGSISFKKVALPSLSYLDLSRNALSFSGCCSYSDLGTNSLRHLDLSFNGAIIMSANFMGLEELQHLDFQHSTLKRVTEFSAFLSLEKLLYLDISYTNTKIDFDGIFLGLTSLNTLKMAGNSFKDNTLSNVFANTTNLTFLDLSKCQLEQISWGVFDTLHRLQLLNMSHNNLLFLDSSHYNQLYSLSTLDCSFNRIETSKGILQHFPKSLAFFNLTNNSVACICEHQKFLQWVKEQKQFLVNVEQMTCATPVEMNTSLVLDFNNSTCYMYKTIISVSVVSVIVVSTVAFLIYHFYFHLILIA
modifications: left off: small tags and cut ends
notes: membrane-anchored truncated Tlr4, residues 22–660, lacking the entire cytoplasmic domain
effect on LPS signaling (in words) (RAW 264.7 cells; listed as Tlr4 ectodomain): inhibited the LPS response only weakly, if at all; also recorded: fails to inhibit LPS signaling
effect on LPS signaling (in words) (RAW 264.7 cells; listed as truncated version of the Tlr4 protein): only a weak inhibitory effect on LPS signaling
